We go through 1 substance from publication PMC4134230.

The test system of data set [1] is Tau (hTau42, longest isoform, unphosphorylated) (Homo sapiens). Kind of data set: SPR (equilibrium saturation). The conditions noted are these: immobilized on polylysine-heparin-polylysine gold surface; 10 mM Hepes, 0.1 M NaCl, pH 7; SPR at 13-33 C, DNA immobilized on polylysine-heparin-polylysine gold surface.
Data set [2] has the same test system. In words: SPR (kinetic). The conditions noted are these: average of six determinations, 18-22 C; Kd given as 0.04 uM; immobilized on polylysine-heparin-polylysine gold surface; 10 mM Hepes, 0.1 M NaCl, pH 7; SPR at 13-33 C, DNA immobilized on polylysine-heparin-polylysine gold surface.

On to “calf thymus DNA (activated type XV, Sigma)”, for which the values for the Ka in data set [1] and in data set [2] were 2.3 10^7 M^-1 and 2.4 10^7 M^-1, respectively.
